Experimental data: patent publication US6686449B2, “Mutant presenilin 1 polypeptides” (Pharmacia & Upjohn Company, priority 2000, dated 2004)

How the values were obtained:
[1] = tested on: APP processing in H125.3-16 (APP695sw-KK) and H143.3-23 (APP695sw) HEK cells; experiment: Transient transfection of constructs, Elisa of Aβ in conditioned media, HEK APP695sw cell lines; format: cell-based, human; conditions: 48 hours after transfection
Method: (§1) The construction of the cell lines used in this section has been described in U.S. Pat. No. 6,440,698. Transient transfections were carried out in 4 different cell lines: H125.3-16, N2A-APP, H143.3-23, and H167-11. The H125.3-16 cell line expresses human APP695 swedish mutant cDNA with a dilyine motif in HEK-293 cells, and the H 143.3-23 cell line expresses human APP695 swedish mutant cDNA in HEK-293 cells. The H167-1 1 cell line was developed using the same methods as the H125.3-16 and H143.3-23 cell lines, except the 167 construct DNA (pTRES-EGFP harboring the human APP695 V642F mutant cDNA containing a dilyine motif) was used. […]
(§2) Twenty-four hours prior to transfection, cells were plated at 6×10^5 cells per well of a six-well dish. […] Conditioned media was collected from the cells 48 hours after transfection and then analyzed by Elisa assay for levels of Aβ1-40 and Aβ1-42. […]

[2] = tested on: APP processing in H167-11 HEK cells (APP695V642F-KK); experiment: Transient transfection of constructs, Elisa of Aβ in conditioned media, H167-11 cell line; format: cell-based, human; conditions: 48 hours after transfection
Method: as §1, §2

B1: BACE: beta-secretase (Asp2) plasmid transfected into the cell lines (protein, UniProt P56817 46-501, looked up)
Beta-secretase 1: ETDEEPEEPGRRGSFVEMVDNLRGKSGQGYYVEMTVGSPPQTLNILVDTGSSNFAVGAAPHPFLHRYYQRQLSSTYRDLRKGVYVPYTQGKWEGELGTDLVSIPHGPNVTVRANIAAITESDKFFINGSNWEGILGLAYAEIARPDDSLEPFFDSLVKQTHVPNLFSLQLCGAGFPLNQSEVLASVGGSMIIGGIDHSLYTGSLWYTPIRREWYYEVIIVRVEINGQDLKMDCKEYNYDKSIVDSGTTNLRLPKKVFEAAVKSIKAASSTEKFPDGFWLGEQLVCWQAGTTPWNIFPVISLYLMGEVTNQSFRITILPQQYLRPVEDVATSQDDCYKFAISQSSTGTVMGAVIMEGFYVVFDRARKRIGFAVSACHVHDEFRTAAVEGPFVTLDMEDCGYNIPQTDESTLMTIAYVMAAICALFMLPLCLMVCQWRCLRCLRQQHDDFADDISLLK
change of Aβ1-40 in conditioned media versus mock transfected cells [1]: robust increase | change of Aβ1-42 in conditioned media versus mock transfected cells [1]: robust increase | change of Aβ1-40 or Aβ1-42 versus mock transfected cells [2]: increase
